Laboratory results as given in patent US20140235701, “NGF APTAMER AND APPLICATION THEREOF” (RIBOMIC INC., published 2014).

Tests used:
Conditions in all cases: tags: R&D Systems; chain copies: 2
[1] = biological target: T1, NGF (nerve growth factor) (Homo sapiens, UniProt P01138 P01138:122-241); assay: cell_activity; neurite; TF-1 0.193
NT-4 (neurotrophin-4) = biological target: T2, NT-4 (neurotrophin-4) (Homo sapiens, UniProt P34130 P34130:81-210); assay: SPR; scarcely bound
T2 sequence: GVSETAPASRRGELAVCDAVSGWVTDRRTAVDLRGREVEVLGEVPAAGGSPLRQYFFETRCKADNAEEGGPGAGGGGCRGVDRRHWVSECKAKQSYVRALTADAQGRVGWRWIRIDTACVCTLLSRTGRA
Method: (§1) The binding activity of these shortened forms to NGF and NT-3 was measured by the surface plasmon resonance method. For the measurement method, BIAcore2000 manufactured by BIAcore was used and CM5 reactive with amino group was used as a sensorchip, as shown in Example 1. The protein was immobilized in the same manner as in Example 1 by using ethyl-3-carbodiimide hydrochloride and N-hydroxysuccinimide. […] After protein immobilization, blocking with ethanolamine-HCl was performed. The amount of immobilized NGF and NT-3 was 3,000-4,000 RU and 3,000-5,000 RU, respectively. The aptamer for an analyte was prepared to 0.15 μM-0.5 μM. The running buffer and regeneration solution were the same as those in Example 1. NT-3 was immobilized on FC2, and NGF on FC3, and the final sensorgram was obtained by subtracting the results of FC1.
(§2) Then, the aptamers were subjected to shortening to 40 mer in the same manner as with consensus secondary structure 1. […] NT-4 was measured in the same manner as in NT-3.
(§3) The shortened sequences were measured for the binding to NGF, NT-3, NT-4 by the surface plasmon resonance method. The measurement was performed in the same manner as in Example 13.

NT-3 (neurotrophin-3) = biological target: T3, NT-3 (neurotrophin-3) (Homo sapiens, UniProt P20783 P20783:139-257); assay: SPR; scarcely bound
T3 sequence: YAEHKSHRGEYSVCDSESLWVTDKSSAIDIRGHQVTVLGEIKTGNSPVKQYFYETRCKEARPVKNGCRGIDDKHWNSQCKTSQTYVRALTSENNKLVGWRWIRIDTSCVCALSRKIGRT
Method: as §1, §2, §3

[2] = biological target: T1, NGF (nerve growth factor); assay: cell_activity; neurite; TF-1 0.322
[3] = biological target: T1, NGF (nerve growth factor); assay: cell_activity; neurite; TF-1 0.296
[4] = biological target: T1, NGF (nerve growth factor); assay: cell_activity; neurite; TF-1 0.455
[5] = biological target: T1, NGF (nerve growth factor); assay: cell_activity; TF-1 proliferation
Method: (§4) Two NGF receptor (human TrkA and human p75) genes were introduced into TF-1 cells (ATCC Number: CRL-2003), which is a human erythroleukemic cell line, by using a retrovirus vector to give cells that highly express two receptors simultaneously and stably. The cells were suspended in an RPMI-1640 medium containing 20% fetal bovine serum, and seeded in a white 96 well flat-bottom plate at 1000 cells (50 μL) per well. […] With the amount of luminescence per well obtained by the addition of NGF alone and culture of the cells for 3 days as inhibitory activity 0%, and that of the well obtained by NGF free culture for 3 days as inhibitory activity 100%, the inhibitory activity of the aptamer was calculated from the amount of luminescence per well obtained by culturing with the addition of NGF and the aptamer in mixture.

[6] = biological target: T1, NGF (nerve growth factor); assay: cell_activity; neurite; TF-1 >10
[7] = biological target: T1, NGF (nerve growth factor); assay: cell_activity; neurite; TF-1 0.042
[8] = biological target: T1, NGF (nerve growth factor); assay: cell_activity; neurite; TF-1 0.081
[9] = biological target: T1, NGF (nerve growth factor); assay: cell_activity; neurite; TF-1 0.311
Method: (§5) With the neurite length per cell obtained by the addition of NGF alone as inhibitory activity 0%, and that of the cell obtained by NGF free culture for 2 days as inhibitory activity 100%, the inhibitory activity of the aptamer was calculated from the neurite length per cell obtained by culturing with the addition of NGF and the aptamer in mixture.
as §4

[10] = biological target: T1, NGF (nerve growth factor); assay: cell_activity; neurite; TF-1 0.039
Method: as §5, §4

[11] = biological target: T1, NGF (nerve growth factor); assay: cell_activity; neurite; TF-1 0.047
[12] = biological target: T1, NGF (nerve growth factor); assay: cell_activity; neurite; TF-1 0.363
[13] = biological target: T1, NGF (nerve growth factor); assay: cell_activity; neurite; TF-1 0.015
[14] = biological target: T1, NGF (nerve growth factor); assay: cell_activity; neurite; TF-1 0.056
[15] = biological target: T1, NGF (nerve growth factor); assay: cell_activity; neurite; TF-1 0.266
[16] = biological target: T1, NGF (nerve growth factor); assay: cell_activity; neurite; TF-1 0.048
[17] = biological target: T1, NGF (nerve growth factor); assay: cell_activity; neurite; TF-1 0.024
[18] = biological target: T1, NGF (nerve growth factor); assay: cell_activity; neurite; TF-1 0.016
[19] = biological target: T1, NGF (nerve growth factor); assay: cell_activity; neurite; TF-1 0.183

T1 sequence (P01138 122-241, one chain of several): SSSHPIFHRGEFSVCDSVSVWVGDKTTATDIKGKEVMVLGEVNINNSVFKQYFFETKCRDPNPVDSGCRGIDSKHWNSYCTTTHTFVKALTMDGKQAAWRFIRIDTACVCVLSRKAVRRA

Binder: GGGUCCUGUUCAAGAGUUUCCGUCUCGUGGACUGUUACCC (ssRNA, 2'-F C/U, dA, 2'-OH G) [SEQ ID NO: 112]
- IC50 [1]: 0.334 nM
- binding result (NT-4 (neurotrophin-4)): no binding
- binding result (NT-3 (neurotrophin-3)): no binding

Binder: GGGUCCUGUUCAAGAGUUUCCGUCUCGUGAACUGUUACCC (ssRNA, 2'-F C/U, dA, 2'-OH G) [SEQ ID NO: 116]
- binding result (NT-3 (neurotrophin-3)): no binding
- IC50 [2]: 0.411 nM

Binder: GGGUCCUGACAAAGAGUUUCCGUCUCGUUGUCUGUUACCC (ssRNA, 2'-F C/U, dA, 2'-OH G) [SEQ ID NO: 114]
- binding result (NT-4 (neurotrophin-4)): no binding
- binding result (NT-3 (neurotrophin-3)): no binding
- IC50 [3]: 0.363 nM

Binder: GGGUCCUGUUGAAGAGUUUCCGUCUCGUCAACUGUUACCC (ssRNA, 2'-F C/U, dA, 2'-OH G) [SEQ ID NO: 117]
- IC50 [4]: 0.394 nM
- binding result (NT-4 (neurotrophin-4)): no binding
- binding result (NT-3 (neurotrophin-3)): no binding

Binder: GGGUCCUGCUGCGGAGUUUCCGUCUCGGUGGCUGUUACCC (ssRNA, 2'-OMe G (G8,G34 2'-OH), dA, 2'-F C/U; 5',3' idT) [SEQ ID NO: 62(1)]
- IC50 [5]: 0.49 nM

Binder: GGGUCCUGCUGCGUAGUUUCCUUCUGCGUGGUUGUUACCC (ssRNA, 2'-F C/U, dA, 2'-OH G) [SEQ ID NO: 86]
- IC50 [6]: 0.834 nM

Binder: GGGUCCUGGAUAAGAGUUUCCGUCUCGUAUCCUGUUACCC (ssRNA, as 82(25) except dU36) [SEQ ID NO: 82(41)]
- IC50 [7]: 0.084 nM

Binder: GGGUCCUGGAUAAGAGUUUCCGUCUCGUAUCCUGUUACCC (ssRNA, as 82(48) without 5' idT; PS between A12 and A13) [SEQ ID NO: 82(60)]
- IC50 [8]: 0.034 nM

Binder: GGGUCCUGAGUAAGAGUUUCCGUCUCAUACUCUGUUACCC (ssRNA, 2'-F C/U, dA, 2'-OH G) [SEQ ID NO: 85]
- IC50 [9]: < 0.3 nM

Binder: GGGUCCUGGAUAAGAGTUUCCGUCUCGUAUCCTGUUACCC (ssRNA, as 82(25) except dT17,dT33,dU36, 2'-OMe A37) [SEQ ID NO: 165]
- IC50 [10]: 0.139 nM

Binder: GGGUCCUGGAUAAGAGTUUCCGUCUCGUAUCCTGUUACCC (ssRNA, as 82(25) except dT17,dT33,dU36) [SEQ ID NO: 163]
- IC50 [11]: 0.113 nM

Binder: GGGUCCUGUCUAAGAGUUUCCGUCUCGUAGACUGUUACCC (ssRNA, 2'-F C/U, dA, 2'-OH G) [SEQ ID NO: 111]
- IC50 [12]: 0.252 nM

B1: SEQ ID NO: 78(3) (ssRNA)
RNA: GGGUCCUGGCCAAGAGUUUCCGUCUCGUGGUCUGUUACCC
modifications: 2'-OMe G (G8,G34 2'-OH), dA, 2'-F C/U except 2'-OMe U4,C6,C10,C11,C21,U23,C26,U28,C32,U35,C38-40; 5',3' idT
- IC50 [13]: 0.045 nM

Binder: GGGUCCUGGAUAAGAGUUUCCGUCUCGUAUCCUGUUACCC (ssRNA, as 82(25) except 2'-OMe A10,A15,A29,A37) [SEQ ID NO: 82(48)]
- IC50 [14]: 0.252 nM

Binder: GGGUCCUGGAUAAGAGUUUCCGUCUCGUAUCCUGUUACCC (ssRNA, as 82(48) without 5' idT; PS between G34 and U35) [SEQ ID NO: 82(63)]
- IC50 [15]: 0.046 nM

Binder: GGGUCCUGGAUAAGAGTUUCCGUCUCGUAUCCTGUUACCC (ssRNA, as 82(25) except dU7,dT17,dT33) [SEQ ID NO: 164]
- IC50 [16]: 0.132 nM

Binder: GGGUCCUGGAUAAGAGUUUCCGUCUCGUAUCCUGUUACCC (ssRNA, as 82(25) except 2'-OMe A10) [SEQ ID NO: 82(45)]
- IC50 [17]: 0.037 nM

B2: SEQ ID NO: 78(2) (ssRNA)
RNA: GGGUCCUGGCCAAGAGUUUCCGUCUCGUGGUCUGUUACCC
modifications: 2'-OMe G (G8,G34 2'-OH), dA, 2'-F C/U except 2'-OMe U4,C6,C21,U23,C26,U28,U31,C32,U35,C38-40; 5',3' idT
- IC50 [18]: 0.045 nM

Binder: GGGUCCUGUCUAAGAGUUUCCGUCUCGUAGACUGUUACCC (ssRNA, 2'-F C/U, dA, 2'-OH G) [SEQ ID NO: 115]
- IC50 [19]: 0.298 nM
- binding result (NT-4 (neurotrophin-4)): no binding
- binding result (NT-3 (neurotrophin-3)): no binding
